Assay results published in IntAct's records for PubMed 22613832.

B1: Ras-related protein Rab-11B (Homo sapiens), Q15907 (parent)
chain: MGTRDDEYDYLFKVVLIGDSGVGKSNLLSRFTRNEFNLESKSTIGVEFATRSIQVDGKTIKAQIWDTAGQERYRAITSAYYRGAVGALLVYDIAKHLTYENVERWLKELRDHADSNIVIMLVGNKSDLRHLRAVPTDEARAFAEKNNLSFIETSALDSTNVEEAFKNILTEIYRIVSQKQIADRAAHDESPGNNVVDISVPPTTDGQKPNKLQCCQNL
partner: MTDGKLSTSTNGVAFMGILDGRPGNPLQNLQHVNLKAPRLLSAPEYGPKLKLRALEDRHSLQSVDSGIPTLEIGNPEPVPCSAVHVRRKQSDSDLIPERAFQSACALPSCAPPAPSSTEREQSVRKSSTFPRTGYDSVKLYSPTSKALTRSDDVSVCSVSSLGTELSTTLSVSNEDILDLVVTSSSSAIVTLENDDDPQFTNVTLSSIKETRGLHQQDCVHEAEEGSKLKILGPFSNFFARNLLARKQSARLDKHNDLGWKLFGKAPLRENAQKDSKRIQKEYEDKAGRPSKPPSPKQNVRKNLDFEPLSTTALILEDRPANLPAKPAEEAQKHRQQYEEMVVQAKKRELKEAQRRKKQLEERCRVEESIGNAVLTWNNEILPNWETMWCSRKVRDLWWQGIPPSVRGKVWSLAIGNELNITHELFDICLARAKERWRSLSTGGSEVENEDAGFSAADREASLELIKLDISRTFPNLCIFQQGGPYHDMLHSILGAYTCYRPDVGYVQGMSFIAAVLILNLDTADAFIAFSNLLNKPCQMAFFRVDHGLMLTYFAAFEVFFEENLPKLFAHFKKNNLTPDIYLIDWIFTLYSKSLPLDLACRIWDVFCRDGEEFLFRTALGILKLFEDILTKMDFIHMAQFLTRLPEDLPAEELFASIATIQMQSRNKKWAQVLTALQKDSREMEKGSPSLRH

Variants of: B1
Conditions: with tbc14_human TBC1D14, Q9P2M4

| Variant | effect of a mutation on the interaction |
| --- | --- |
| Q70A | increasing interaction strength |
| S25N | decreasing interaction strength |
